# Measured values from US20220064316A1 (published 2022).
# T1: BCMA-Fc antigen (R&D Systems) (UniProt Q02223 1-54)
# T1 construct: also called BCMA fc fusion protein (R&D Systems, cat #193-BC-050); recombinant BCMA-Fc; not shown: Fc portion of the bought fusion protein
# T1 sequence (looked up): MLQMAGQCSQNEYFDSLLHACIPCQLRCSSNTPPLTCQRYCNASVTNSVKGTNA
# T2: human BCMA (B-cell maturation antigen) on cells (human, UniProt Q02223 1-184)
# T2 sequence (looked up): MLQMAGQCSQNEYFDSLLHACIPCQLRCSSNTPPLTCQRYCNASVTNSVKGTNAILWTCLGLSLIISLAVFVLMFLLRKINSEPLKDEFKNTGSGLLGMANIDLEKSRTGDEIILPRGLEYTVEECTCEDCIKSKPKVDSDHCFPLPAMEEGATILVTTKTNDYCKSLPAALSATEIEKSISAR
# B1: BCMA-13 CAR (139112) (other)
# chain: QVQLVESGGGLVQPGGSLRLSCAVSGFALSNHGMSWVRRAPGKGLEWVSGIVYSGSTYYAASVKGRFTISRDNSRNTLYLQMNSLRPEDTAIYYCSAHGGESDVWGQGTTVTVSSASGGGGSGGRASGGGGSDIRLTQSPSPLSASVGDRVTITCQASEDINKFLNWYHQTPGKAPKLLIYDASTLQTGVPSRFSGSGSGTDFTLTINSLQPEDIGTYYCQQYESLPLTFGGGTKVEIKTTTPAPRPPTPAPTIASQPLSLRPEACRPAAGGAVHTRGLDFACDIYIWAPLAGTCGVLLLSLVITLYCKRGRKKLLYIFKQPFMRPVQTTQEEDGCSCRFPEEEEGGCELRVKFSRSADAPAYKQGQNQLYNELNLGRREEYDVLDKRRGRDPEMGGKPRRKNPQEGLYNELQKDKMAEAYSEIGMKGERRRGKGHDGLYQGLSTATKDTYDALHMQALPPR
# notes: also called B13; KG66-98AB
# B2: BCMA-12 CAR (139111) (other)
# chain: EVQLLESGGGLVQPGGSLRLSCAVSGFALSNHGMSWVRRAPGKGLEWVSGIVYSGSTYYAASVKGRFTISRDNSRNTLYLQMNSLRPEDTAIYYCSAHGGESDVWGQGTTVTVSSASGGGGSGGRASGGGGSDIVMTQTPLSLSVTPGQPASISCKSSQSLLRNDGKTPLYWYLQKAGQPPQLLIYEVSNRFSGVPDRFSGSGSGTDFTLKISRVEAEDVGAYYCMQNIQFPSFGGGTKLEIKTTTPAPRPPTPAPTIASQPLSLRPEACRPAAGGAVHTRGLDFACDIYIWAPLAGTCGVLLLSLVITLYCKRGRKKLLYIFKQPFMRPVQTTQEEDGCSCRFPEEEEGGCELRVKFSRSADAPAYKQGQNQLYNELNLGRREEYDVLDKRRGRDPEMGGKPRRKNPQEGLYNELQKDKMAEAYSEIGMKGERRRGKGHDGLYQGLSTATKDTYDALHMQALPPR
# notes: also called HU13-58ZB
# What was measured:
# [1] = biological target: T1, BCMA-Fc antigen (R&D Systems); assay: flow cytometry; BCMA-Fc staining of CAR-transduced JNL cells
# Procedure: Jurkat-NFAT-luciferase (JNL) cells transduced with BCMA CAR constructs were evaluated for activation in response to BCMA-expressing target cell lines. Small-scale viral supernatant samples were generated in HEK293T cells for transduction of JNL cells. On Day 3 following transduction, BCMA CAR-transduced JNL cells were incubated with target cells at an effector-to-target (E:T) ratio of 6:1. Target cell lines were: K562-BCMA (engineered to stably express BCMA), K562 (parental line), and BCMA positive multiple myeloma cell lines, NCI-H929 and RPMI 8226. JNL activation was measured using Bright-Glo substrate (Promega) on Day 4. CAR expression on transduced JNL was assessed on Day 7 with BCMA-Fc antigen and Biotin-Protein L reagent (Table 21).
# [2] = biological target: T2, human BCMA (B-cell maturation antigen) …; assay: cell-based or functional assay
Binder,% CAR+ (BCMA-Fc detection) [1] [%],"JNL binding assay, ratio to K562; K562-BCMA [2] [ratio]","JNL binding assay, ratio to K562; NCI-H929 [2] [ratio]","JNL binding assay, ratio to K562; RPMI 8226 [2] [ratio]","Proliferation CD3, ratio to no target; K562-BCMA [2] [ratio]","Proliferation CD3, ratio to no target; KMS11-luc [2] [ratio]","Proliferation CD3, ratio to no target; NCI-H929 [2] [ratio]","Proliferation CD3, ratio to no target; RPMI 8226 [2] [ratio]","Proliferation CD4, ratio to no target; K562-BCMA [2] [ratio]","Proliferation CD4, ratio to no target; KMS11-luc [2] [ratio]","Proliferation CD4, ratio to no target; NCI-H929 [2] [ratio]","Proliferation CD4, ratio to no target; RPMI 8226 [2] [ratio]","Proliferation CD8, ratio to no target; K562-BCMA [2] [ratio]","Proliferation CD8, ratio to no target; KMS11-luc [2] [ratio]","Proliferation CD8, ratio to no target; NCI-H929 [2] [ratio]","Proliferation CD8, ratio to no target; RPMI 8226 [2] [ratio]"
B1,32.7,3.74,2.68,3.66,3.47,3.2,3.46,3.48,5.4,3.84,5.05,4.44,2.34,2.79,2.53,2.86
B2,23.4,3.17,2.78,3.36,2.9,2.76,2.98,3.27,3.42,2.94,3.41,3.66,1.51,2.11,1.76,2.12
